Where two headings read alike, the source gives them in different places.
What was measured:
[1] = target: FliF (flagellar MS-ring protein) from Salmonella enterica serovar Typhimurium (Salmonella enterica serovar Typhimurium) (UniProt P15928); experiment: cryo-EM structure
[2] = target: FliF (flagellar MS-ring protein) from Salmonella enterica serovar Typhimurium (Salmonella enterica serovar Typhimurium) (UniProt P15928); experiment: cryo-EM structure; remark: listed apart in the source

With “FliF (flagellar MS-ring protein) from Salmonella enterica serovar Typhimurium (from UniProt P15928 1-560) (natural protein)” the stoichiometry N [1] was 33 and the stoichiometry N [2] was 34.
